Results on 21 sequences are retold here after the DeepSol protein solubility set.

The nature of the data set: soluble on expression in E. coli; label from the status in PepcDB or PDB records.
In the case of “MPLALDDGDVNLSELRAFDLLGRCETGSIVNTVSLSSTGNYLAAGGFDHKVYYYDSRGTQLWNYTTGDIVYTVSISSDGSRIAAGSNDRKVYFFNREGELLWSRKTGGNINSVAVSSEGLYIATGGEDGKVYFLDKDGKLLWSFNSGDAVRSVAISRDGDYVLEHHHHHH”, the “soluble on expression in E. coli” value is reported as “not soluble”. Consider “MPLDPICKKIISRDTEYFSDYGGKNYYFCSSECKHKFDALEKSVIRLKRNLSEKEKISFGKLKRDIIKPGICTLCGACAASCEYITIKDEKPELIGPCKACGVCYYQCPRTITTEEGLIGSFRYAYAAQSAIPEIKGQDGGVVTSLLLYALDEGLIDCAVVTVHSEEEPWKPVPIVAKTREEILKSSGSIYSHSMTLEALMSAVKQGMNSVAFVGTSCNIDAVTKMQKSSYGFLHLFMRAKVLKLGLFCMDTFAYEGIKAVLESYGITLDNVDAMKIRKGKFEVALKDGKEHIFELSEFDEYRSSSCRFCTDLTAENSDISFGGVGSPRGYTTVLARSAIGYEIFNEAIDNGYIEARQLTDDELEKVLNLAKMKKVQMYDLHRRQKTLEHHHHHH”, for which the “soluble on expression in E. coli” value was “not soluble”. “MPLEASELKPTAGPLEASELKPTAGPLEASELKPTAGPLEASELKPTAGPLEASELKPTAGPLEASELKPTAGPLEASELKPTAGMTDAFIFENKKAAFLTLGCKLNFAETSTIGKALAEQGVRPVREGEKADICVINTCSVTELADKKCRNAIRKLHKEHPGALMIVTGCYAQLKPEEIARIDGVDIVLGADEKLDLVSILSQRPIQGFAEQTILTTPTKDIRKFQPGCSADDRTRHFLKVQDGCDYHCSYCTIPKARGRSRNGSIESLVRQAEAVAAEGGKEIVLTGVNIGDFGRSTGETFLDLLRALDQVEGIERYRIGSIEPNLLSDELIDFCASAHRIAPHFHMPLQSGSDDVLKLMRRRYDTALFRERVEHIRRALPHAFIGIDVIVGTRGEKPEFFEDCYSFLQDKISFSRLHVFSYSERPGTQALQIPYKVDAREKQRRSRRLLDLSDLRLAEFYRSQEGTHRRVLWEDVCHEGLMQGFTENYIRVAAPYAADSVGKVEEIVLGKTDPSGEYVQTADTIFPLEHHHHHH”: the “soluble on expression in E. coli” value is “soluble”.

“MPLGLGRRKKAPPLVENEEAEPGRGGLGVGEPGPLGGGGSGGPQMGLPPPPPALRPRLVFHTQLAHGSPTGRIEGFTNVKELYGKIAEAFRLPTAEVMFCTLNTHKVDMDKLLGGQIGLEDFIFAHVKGQRKEVEVFKSEDALGLTITDNGAGYAFIKRIKEGSVIDHIHLISVGDMIEAINGQSLLGCRHYEVARLLKELPRGRTFTLKLTEPRKAFDMISQRSAGGRPGSGPQLGTGRGTLRLRSRGPATVEDLPSAFEEKAIEKVDDLLESYMGIRDTELAATMVELGKDKRNPDELAEALDERLGDFAFPDEFVFDVWGAIGDAKVGRYLEHHHHHH”: the “soluble on expression in E. coli” value is “not soluble”.

As for “MPLTKRAVSPVNLSRGTIPSTIHRDELQCTANGTIANLVRQLSSLSKHAENIFGEIYHDAMIINHKSNTLQQRIDRLHKKVEDLDSNSDQATLNEANMRKAFKSSMLVDQHILDRSTLPTALTEIYAKCDPPPDLDALNPYRDSEIPALSLYTNPSFFFDLWKKETLKEVAERPRRVKSPNDGSKSPKKRRKQPGQGPLGTTAYNDMQHRNRQISGSRINQQNEVFSFPEEYQAPQALGLQLNFKNQHPSNMVAPIGMTMHHHPQQNVHPSQQRGGAPAAARGSPNVKRPTEAPPPVNLDHLPPPDMSILSIDDDDDDLPPPPPPLLMNTSIVHQLPAEAPSTIQFVEPSAAPPTNIPPPPPPPPPMVISSAAASFAAPAPKPSADGEAAGTNSPVAPKQPDARSDLLAQIQSGIKLKKVQRAEAEAAENAALEANNVAAILKRRMDQVMGNDDSSSEEGADDDEWDD”, the “soluble on expression in E. coli” value is “not soluble”. Under “MPMTLDLQPGQRLARGVARHLRAHGFVSVEEFVPARGLRVDVMGLGPKGEIWVIECKSSRADFQADAKWQGYLEWCDRYFWAVDMEFPAELLPAESGLLIADAYDAEIVRMAPEQKLAPARRKVLIQKFATHAARRLQALRDPEGHG” stands “not soluble”. Under “MPNHQPVKKFKIIGGACKGLGLNLPNISSTRPTKAIVRESFFNTLQAEINGAHFIEVFSGSASMGLEALSRGAKSAVFFEQNKSAYKTLLENISLFKNRLKKEMEIQTFLDDAFKLLPTLCLKNGVLNIIYLDPPFETSGFLGIYEKCFQALERLLKRFNPKNLLVVFEHESMHEMPKSLVTLAIIKQKKFGKTTLTYFQLEHHHHHH” stands “soluble”. The value for “MPNIDNVFSIYAGQLELLRQNGLIERTGEYICPICLNSFNKEQLNKLSMEDAPQASLGGKKIAITCKKCNNTCGHETDIHLVNFITYLEEQEFLPGSNRRVKIFDDETTINANLEVGNTKELKMIIPNKINNPKALTNHLSKLTVGGIIDIQNHPLKIDMKKVSTAILKNAYIILFARFGYSFLLNSFYDRIREQILNPAKHIIPESLWTKQTSISVKDGIYFSNSNVYRGFFIIYSLTKLRTHHFCICIPTPQVYFEAIAYYFREYKAGIPIYMMGSDGIDYFQNIDNIKALNKWLVNWSLGSPV” was “not soluble”. Consider “MPNYDATHATSTETIHYVNEDGDQVFEDGGGKLDFTRTVTIDDVTNEVVEYGEWTPVTDDEFAAVTSPDKDGYTPDTSEVAAQKPDMTDGPDGTVKDVEVTVTYTANPAVATITYVDDDENGKTVKTLEHHHHHH”, for which the “soluble on expression in E. coli” value is recorded as “soluble”. Under “MPPPSPLHLDPIEEAHRQWTKHGWGDVADGMAAVTSVMRAQQIMMARVEEVLKPSGLTFARYELLTLLTFTRTGALPMAKASARLQVHPTSVTNAVDRLETANLVRRVPHPSDRRATLIEITDAGRKLAVESTERLNAQVFSRPGVSGDKLEQLVTILAELRREAGDFDTGDAPTKW” stands “not soluble”; under “MPQALSTDILIVGGGIAGLWLNARLRRAGYATVLVESASLGGGQSVKSQGIIHGGAKYALHGALTGASEAIADMPRRWRACLGSDGELDLRGVRLLSEAHYLWSPGGLAGSLTSFFASKAVRSRVEQAKGEDLPPALRDKGFKGKAYRLTEIVFDVPDLIRRLAELAGDSLLAGERIEPLREGRELAGLCVDGREIRAQRVVLSAGAGNEALLRELGLEQPAMQRRPLHMVMVKAATLKPLYAHCLGAGPKPRITVTTHPTRDGQSVWYLGGDIAETDGVARDEAAQIAEARRELAKLLPWIDLGQAQWATLRVDRAEPAQSNLLRPDNAFLAEQGRLLVGWPTKLALAPDFADRVCARLEEDGIRPSEHAALPQLPRPPLAEPAWEVAFALEHHHHHH”, “not soluble”; under “MPQNAQEYYEKVKKFTKKKDGAIRAIEDTKKAMEKKAATKSAKAGRKLQASRKKHWYDRFRWFVSSDGFLVVGGRDADTNEEIFKKYMEKRDIVFHTQTPGAPLTVVKTGGKEVPDSTLQEVSQFAVSYSSLWKAGQFSGDCYWIKSEQVTKTPESGEYLKKGAFVIRGERNYFKDVPLGIAVGLELKGETRIIGGPASAVRKHGDYILEIIPGKFNQNDISKKIYRIYADELNDPRFVKQIASPDQIAMMIPAGESDLRNQKPEKKGQGFGPEGEGYETPEMEAGFEDLKGEIDEESGENAGEEFADEEFAEEIGEGSEVKVKAEAREGNEEIIEIRGVKKE”, “not soluble”. With “MPQVQSWFPVQKQPTLAVTFTPLPQLSHAHLPLPPSHLVTKTDAMFQHQLLPTQLQPFPPNHTPLLLLLTVTTMAVTPRLSLLNVLKKLQQPPFLQNHTLLLPLLTVTTTAVTPRLSLPRLPNKHHWPLAQSPSLLLQLLILLLPAPSLVLSFNPKVWLLV”, the “soluble on expression in E. coli” value was “not soluble”. The value for “MPRKRSVALAAWGEEGLLLVLRPQDDPEFPGAWGLPAVSLQGEETLEEAALRVAREKLGAEVAEAGPIAFGVEERPGYTLELWVYEGRLLGRPRLPEPKPGKTYYAAFRFGRPEELKAAARQGSLCSRLFLAVKGLCP” was “soluble”; that for “MPRLDLCAKRTTDQCTSRVRLATRKGLTKLLLCSRESSIFKDEDIEQDDLRSSRTPWAALPPPPIKPIADSFRCDALVIGAGITGALVAERLTRQGRQVVIIDRELPSLGSTVASTAMLLWETDRPLFELAQLYNFEKAVRCYRASHHAARGLLALVTDHGIACQMRPRLSLYLAVDDSPKLVRNEYALRSRADLPTLFLDRVELLNRFGIARAGALLSRDAADADPVRLTRGLLDVSLQRGARLLKANAVAYDSAASTVTVGLENGLSIEARHVVLATGYVMPNIVGSTSNQPASSWAIATRRRPNALWPEQALIWEATRNYHYARTTPDGRVIFGGEDDDAIIDPEARAAATPAKVRALKERLKALWPRASTEVAFTWSGAFDTTRDGLPLIGAVPGYRNILAAFGYGGNGITFSFLAAELLGTLLSGGSSPLLDVLALDRDLPANDAPSDSQALEHHHHHH” was “soluble”. The value for “MPRPRVLLLGDPARHLDDLWSDFQQKFEVIPANLTTHDGFKQALREKRYGDFEAIIKLAVENGTESYPWNADLISHLPSSLKVFAAAGAGFDWLDLDALNERGVAFANSRGAGDTATSDLALYLILSVFRLASYSERAARTGDPETFNRVHLEIGKSAHNPRGHVLGAVGLGAIQKEIARKAVHGLGMKLVYYDVAPADAETEKALGAERVDSLEELARRSDCVSVSVPYMKLTHHLIDEAFFAAMKPGSRIVNTARGPVISQDALIAALKSGKLLSAGLDVHEFEPQVSKELIEMKHVTLTTHIGGVAIETFHEFERLTMTNIDRFLLQGKPLLTPAGKVFAPSSAA” was “soluble”; that for “MPRRHSIVYAVEYDGDIYAITGITHETRNYLYKYIVKEDKWIELYMYFNHVGKTFVCSCGDYILIIADAKYEYYPKSNTWNLFDMSTRNIEYYDMFTKDETPKCN” was “not soluble”. Under “MPRYCIVNADDFGYSKGVNYGILEAFQHGVVTSATLMANMPAAEHAARLAKEHPELGVGIHFVLTCGRPLADVPSLVNENGEFPRRGEALAGARRSDIERELAAQLERVFSLGLSPTHIDSHHHVHEHPNVFPVVEQLAERYRLPIRPVRTTRPHRLATVDVFFPDFYGDGLTKDHFLTLIDRIGDGQTAEVMCHPAYMDAPLAAGSSYCRQRIEELAVLTDPALSKEIAERGVQLITYREFYQL” stands “not soluble”; under “MPSDAPIDFTGLIRASDLVVCGQATAEPLTLTEALMAQAADLPPFRLMVGPVFSDTFAAAPPNVSFVSYGVIGHARKLARAGRLDVIPSNYSAFCADFAAGRHRADVVLVQLAEAPDGRLSASLSCDYVIDAARRARLVIAEINPDAPFTYGAEWPGEVPIHIRVAARRKPVELPSGALDDVSRKIAANAAGLIADGATLQFGVGKIPDAILSSLVHARDLGIHSGLINDAVVELIERGVVTNARKGIDPGVTVTNQLIGTQRLYRFAHQNRSVRMQPAAYTHDHGVLGRINRLTAINSALQVGLDGSVNAETLNGVAIGAIGGQLDFVRGANASPGGRALIALPATAPDGSSRIVARVETVTTPRADVDVIVTEWGVAELRGCSLAERARQMIAIAAPEHRDRLAEQARTIALEHHHHHH”, “not soluble”. For the sequence “MPSDLIPLIELHQVSKTFGKPVAEHSLQGLLQRLHLTRPKPVTHAVDRVDLRIMRGEVVGLVGESGCGKSTLGRMVAGLLPVSSGVASVDGKPLDSLTTQERKALRLKVQMIFQDPSSSLNPRLRVDRIVGEGALLHGLTDRKGADDYVSAQLQRAGLNPQLRQRYPHQFSGGQRQRIGIARALAVQPELLVCDESVAALDVSIQAQILNLFMDLRDELGLTYLFISHDLGVVEHLCDRVVVMYLGRVVETASVDDLFARANHPYTQALLAQIPRFDIRSTRYDAIQGEIPSPLNPPTGCHFHPRCPHAMARCREEVPALREVSPNHQSACHLNDQR”, the “soluble on expression in E. coli” value is on record as “not soluble”. The value for “MPSFDIVSEITLHEVRNAVENANRVLSTRYDFRGVEAVIELNEKNETIKITTESDFQLEQLIEILIGSCIKRGIEHSSLDIPAESEHHGKLYSKEIKLKQGIETEMAKKITKLVKDSKIKVQTQIQGEQVRVTGKSRDDLQAVIQLVKSAELGQPFQFNNFRD” was “soluble”.
